Source: the supplement of paper PMC9732359
± gives the uncertainty stated by the source.

assay: protein stability index of a GFP-peptide fusion (yeast GPS) (PSI 1-4); higher = more stable; sorted into four equal gates, so the index is relative within each strain; settings: san1∆
Summary of the method: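 Each library plasmid carries Cherry plus GFP with a tiled 17-residue yeast protein peptide fused downstream, and the pooled library was carried in yeast. Mid-log cultures in leucine-free medium were sorted into four equal gates by GFP/Cherry ratio. Reads from Illumina sequencing of PCR-amplified plasmids from each gate were assigned to strains by barcodes. Per peptide, the protein stability index was computed as the summed products of gate read frequency and gate number.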

Sequence	protein stability index
RARVKAFPKDDRSKPVA [RPL3]	3.4 ± 0.047

same assay, conditions: ubr1∆

Sequence	protein stability index
QIVQVLKQPPFQITLSS [SSN8]	2.54 ± 0.081
QKESDAKNETNSESDSK [ITC1]	2.85 ± 0.043
QKGTIGITYRREDMPFT [RPB2]	2.9 ± 0.069
QKIVVVRAEELNISGEF [RPL16A]	3.28 ± 0.19
QKKVPDKLLDPTTVSYI [SCL1]	2.67 ± 0.044
QKLMQLVVLTDVVERLH [RGR1]	2.3 ± 0.035
QKSGRPVKSIRARLKGK [RPO21]	1.77 ± 0.24
QKSINHPPDFKRMLLSL [SNF2]	1.38 ± 0.022
QKSTELLIRKLPFQRLV [HHT1]	1.3 ± 0.16
QLAIRNDDELNKLLGNV [HTA1]	3.43 ± 0.078
QLFHNLISIHSRENNSE [YJL039C/NUP192]	2.88 ± 0.091
QLGYGKFLILNENPINK [NUT1]	2.84 ± 0.13
QLKRWYWQFNGVIALGQ [RMP1]	1.41 ± 0.22
QLLDTSNQRFKDLQWLE [SIN4]	2.91 ± 0.043
QLLGDVMTYKGEVLGIT [RPO31]	3.33 ± 0.075
QLLKEDSEKRNKYAAML [RRP45]	2.97 ± 0.05
QLLLLSDERAKLELINR [LRP1]	2.99 ± 0.18
QLLQRIPNIPPNINTWQ [GAL11]	2.62 ± 0.044
QLPANMVHLYSIVEECD [RPC17]	2.02 ± 0.04
QLPKQLWRNFCRKLSFS [ITC1]	2.66 ± 0.034
QLTVCGAIIGWTRGTGL [FAS2]	1.3 ± 0.085
QLYESGNPVNDANLLGA [COR1]	2.81 ± 0.044
QLYKARMSIKLLRLASK [POP1]	1.14 ± 0.048
QMAKDVTTFLNWCAEPE [CYT1]	3.46 ± 0.073
QMIDTSILPTRDDLFVR [NUT1]	2.33 ± 0.044
QNDQWSIQMEFMLRKQD [SSN2]	2.81 ± 0.074

Sequence	protein stability index
QNNSKHTEDTVNESRNS [SRB5]	2.98 ± 0.11
QNSDASTLEPTLRKELE [YIL149C/MLP2]	3.12 ± 0.077
QNTIDDTEMKMKSLLTE [YIL149C/MLP2]	3.19 ± 0.05
QNYLKTYNEDIPVEILV [PRE9]	2.38 ± 0.071
QPEDLEPAEANEENDLD [RPB2]	3.42 ± 0.16
QPIFVAHTAGRYANKRF [RPS5]	1.78 ± 0.069
QPQALQKSGRPVKSIRA [RPO21]	2.17 ± 0.037
QPSSSRYNGGNDNIGAN [SMB1]	3.37 ± 0.075
QPVLEKPLKKGSADIGA [SIR4]	2.94 ± 0.055
QQQQQQHIYPSSTPGVA [GAL11]	2.664 ± 0.025
QQQQQQQQQQQQQQQQQ [GAL11]	2.903 ± 0.023
QQQQQQQVPPLPDELTL [DLS1]	2.689 ± 0.025
QQQSADHDDSTDDADDH [NSL1]	3.01 ± 0.037
QQQTSTFNSKPVRTIVP [SIR4]	2.58 ± 0.028
QQQVLNKLRQQAIAKNN [SNF5]	1.05 ± 0.052
QQRKQKKNRDKKIFGTG [RPS24A]	3.06 ± 0.067
QQTAQTQLEQQRQLLVQ [SNF5]	2.49 ± 0.072
QQTEKLNPQVADINKNF [RPN2]	2.49 ± 0.055
QRDAVTLFCCLLRSRLA [RPO21]	1.98 ± 0.041
QRKKQIAFPQRKYAIKA [RPL35A]	1.23 ± 0.062
QRKNGVTNSPLFQTIEK [ECM29]	3.11 ± 0.086
QRVFDETEQEYSPSNEI [YDL116W/NUP84]	3.29 ± 0.043
QSGSNSGNNSKKRKNKS [ROX3]	3.15 ± 0.066
QSISNENDVKPISIEAP [SWI3]	2.32 ± 0.037
QSISQNSSSSTPNTNSN [SWI1]	2.82 ± 0.048
QSKEILKGLLQELKADS [SRP72]	2.6 ± 0.11

Sequence	protein stability index
QSLANIQYVTYLLTQQQ [SOH1]	2.41 ± 0.033
QSLELMIYDDAHEISQG [BRR2]	3.02 ± 0.035
QSQPIANQSATSTPPPP [SNF5]	2.63 ± 0.034
QSRRYNLRRHSDIVLDK [SIN4]	3.14 ± 0.035
QTFEAKLHFKDTKPFLN [NUT1]	2.67 ± 0.043
QTGTKPVLKKKAAFLGS [COR1]	3.16 ± 0.058
QTHPDTGISQKSMSILN [HTB1]	2.72 ± 0.068
QTQEFFLSSFDDVLQTI [YJL039C/NUP192]	2.51 ± 0.034
QTSLVRMFEKNVMLNIY [SKI6]	3.12 ± 0.076
QVIFEIFEISLQRKDYT [YML103C/NUP188]	2.84 ± 0.061
QVKVKGQLGEMAKCLDN [YCS4]	2.73 ± 0.076
QVNGNIRKVSNDRESVL [SMC3]	2.18 ± 0.056
QVSKKLSSIEASLKIKN [SMC3]	2.27 ± 0.08
QVVTDYNILGNLGIPKI [SSN2]	2.27 ± 0.06
QYDFKAVLEENDENDDE [RPN14]	2.89 ± 0.055
QYGYSGSSAGMNGRSLT [SNF6]	3.1 ± 0.042
QYNIPPEREVLVRELYQ [RRP6]	2.17 ± 0.083
RAEAKAQGVAVQLKRQP [RPL21A]	2.46 ± 0.11
RAGKYELVKSYSWLLFE [YJR042W/NUP85]	1.33 ± 0.062
RAHRIGQKNEVRILRLI [SNF2]	2.23 ± 0.044
RAKPVTNSSILLGKILP [RRP6]	2.39 ± 0.13
RALYTPFLLMELHKKLV [YDL116W/NUP84]	1.26 ± 0.13
RAPKVIHGQDFQFFPKE [ISW2]	2.83 ± 0.052
RARVKAFPKDDRSKPVA [RPL3]	3.15 ± 0.083
